The subject of series [1] is Cunninghamella echinulata ATCC 9244. Briefly: Fungal bioconversion of thebaine to northebaine by Cunninghamella echinulata cultures. In kind it is cell-based. The following applies: 0.5 mg/ml thebaine added after 48 h of growth; eleven days after thebaine addition; supernatant, LC-MS. The procedure: (§1) Cunninghamella echinulata ATCC 9244 was propagated on potato dextrose agar at room temperature. Mature cultures on plates (7-10 days) were used for the preparation of concentrated spore suspensions. Spores were harvested by flooding the lawn culture with a sterile solution containing 0.9% sodium chloride and 0.01% Tween 80 (10 ml/plate), scratching them from the hyphae with the aid of a sterile loop and filtering the suspension through sterile cotton to remove hyphal fragments. Thamnostylum piriforme ATCC 8992 was propagated on malt extract agar (CM0059) at room temperature and spore suspensions were prepared as indicated above. […]
(§2) Media was inoculated with 0.25 ml of freshly-prepared spore suspensions. […] Eleven days after thebaine addition, supernatants were collected and analyzed by LC-MS. […] Thebaine and northebaine were monitored in the supernatants, reaching a conversion level of 25% on day 12 after substrate addition (FIG. 2).

The test system of series [2] is Thamnostylum piriforme ATCC 8992. Briefly: Fungal bioconversion of thebaine to northebaine by Thamnostylum piriforme cultures. In kind it is cell-based. The procedure: as §1, §2
Series [3] deals with codeine. Put plainly: In vitro N-demethylation of codeine by mammalian cytochrome P450s in crude yeast cell lysates. The following applies: crude cell extract with human CPR and cytochrome b5; 0.2 mM substrate, pH 7, 30° C., approximately 20 hours; compared to negative control strain without cytochrome P450s.
Series [4] concerns thebaine. Put plainly: In vitro N-demethylation of thebaine by mammalian cytochrome P450s in crude yeast cell lysates. The following applies: crude cell extract with human CPR and cytochrome b5; 0.2 mM substrate, pH 7, 30° C., approximately 20 hours; compared to negative control strain without P450s.
In series [5] the test system is oripavine. Briefly: In vitro N-demethylation of oripavine by mammalian cytochrome P450s in crude yeast cell lysates. The following applies: crude cell extract with human CPR and cytochrome b5; 0.2 mM substrate, pH 7, 30° C., approximately 20 hours; compared to negative control strain without cytochrome P450s.
Series [6] concerns salutaridine. Put plainly: In vitro N-demethylation of salutaridine by mammalian cytochrome P450s in crude yeast cell lysates. The following applies: crude cell extract with human CPR and cytochrome b5; 0.2 mM substrate, pH 7, 30° C., approximately 20 hours; compared to negative control strain without cytochrome P450s.
Series [7] has as its system salutaridinol. Put plainly: In vitro N-demethylation of salutaridinol by mammalian cytochrome P450s in crude yeast cell lysates. The following applies: crude cell extract with human CPR and cytochrome b5; 0.2 mM substrate, pH 7, 30° C., approximately 20 hours; compared to negative control strain without cytochrome P450s.
Series [8] relates to thebaine. Put plainly: Conversion of thebaine by demethylases heterologously expressed in Aspergillus nidulans. The settings on record: 0.5 mM thebaine, Minimal Medium pH 7, 84 hours; supernatant, LC-MS.
The test system of series [9] is thebaine. Briefly: In planta conversion of thebaine by transient expression of demethylases and CPRs in Nicotiana benthamiana leaves. The following applies: co-expressed with CPR_DN10898_c0_g1_i1_co or Cel_CPR_co; leaves re-infiltrated with 0.5 mM thebaine after 4 days, measured 1 day after.
Series [10] has as its system thebaine. Put plainly: Bioconversion of thebaine (N-demethylation to northebaine) by S. cerevisiae expressing cytochrome P450s and CPRs, LC-MS. The settings on record: 0.5 mM thebaine, pH 7, 72 h; co-expressed with native or codon-optimized T. piriforme CPRs or Cel_CPR.
Series [11] has as its system oripavine. Put plainly: Bioconversion of oripavine (N-demethylation to nororipavine) by S. cerevisiae expressing cytochrome P450s and CPRs, LC-MS. The following applies: 0.5 mM oripavine, pH 7, 72 h; co-expressed with native or codon-optimized T. piriforme CPRs or Cel_CPR.

Take `COC1=CC=C2[C@H]3Cc4ccc(OC)c5c4[C@@]2(CCN3C)[C@H]1O5` [Thebaine, thebaine]: the “conversion of thebaine to northebaine” value in [1] came out at 6%; in [2] (0.5 mg/ml thebaine added after 48 h of growth, eleven days after thebaine addition, supernatant, LC-MS) it was 16%. For the same molecule, the “conversion level of thebaine to northebaine” value in [2] (new T. piriforme cultures, day 12 after substrate addition) is given as 25%.

B1: Hs_CYP2C8: Cytochrome P450 2C8 (P10632), Homo sapiens (protein, UniProt P10632 1-490, looked up)
Cytochrome P450 2C8: MEPFVVLVLCLSFMLLFSLWRQSCRRRKLPPGPTPLPIIGNMLQIDVKDICKSFTNFSKVYGPVFTVYFGMNPIVVFHGYEAVKEALIDNGEEFSGRGNSPISQRITKGLGIISSNGKRWKEIRRFSLTTLRNFGMGKRSIEDRVQEEAHCLVEELRKTKASPCDPTFILGCAPCNVICSVVFQKRFDYKDQNFLTLMKRFNENFRILNSPWIQVCNNFPLLIDCFPGTHNKVLKNVALTRSYIREKVKEHQASLDVNNPRDFIDCFLIKMEQEKDNQKSEFNIENLVGTVADLFVAGTETTSTTLRYGLLLLLKHPEVTAKVQEEIDHVIGRHRSPCMQDRSHMPYTDAVVHEIQRYSDLVPTGVPHAVTTDTKFRNYLIPKGTTIMALLTSVLHDDKEFPNPNIFDPGHFLDKNGNFKKSDYFMPFSAGKRICAGEGLARMELFLFLTTILQNFNLKSVDDLKNLNTTAVTKGIVSLPPSYQICFIPV
Regarding B1, in [3], the “in vitro N-demethylation activity on codeine” value is listed as “detected”. The “in vitro N-demethylation activity on Thebaine” value in series [4] was “detected”. The “in vitro N-demethylation activity on oripavine” value in series [5] is “detected”. Further, in [6], the “in vitro N-demethylation activity on salutaridine” value was “detected”. Also, the “in vitro N-demethylation activity on salutaridinol” value in [7] is listed as “detected”.

B2: Mc_S2JT25_co: codon-optimized cytochrome P450 S2JT25 from Mucor circinelloides (protein)
chain: MTLIASYNQTLLERVISVVRKNKTSYIGMAILCVVLQQVYASFTVPPKYLRRYPTVSFFEMMKSFYRKESVLNRNKRLVTPLTNAGHGFYVCRIPLDWTIYVTDPIAAKTLLLKTDNFPKSHAIFGALGESSPAVKFMGSENVAVSNGEMWKKQRKIMNPAFHRSQPVKLFGGVMPDLFALIDQDPEHVFVAPRMKSFALDALGLSAFGFDFQSLKGDPEGWTSKYNTVISTLFNPFINLFAKYDFLIKYISPERRRVIKATDEFNVMLSNLADKRRQEILDGEKKDMAENEKDLLTLMIEADIREGVETTTTELRHNMAIFFLAGHDTTANTLALCLYQLAKHKHVQKKARQEVLDILGDDPCDVTPTLEDLKKLNYVNMVIKENLRRNSPVDNLMARDTHQDIDLNGTFIPKGSKVTVNVASIHLNPKIWHDPESFIPERFEPGGEYDGHDGFTWIPFSNGSRQCLGLNFSLTEQRVVLCMLLKRYEIEIPKDSIHYNEIVFDKPFTFAPQSLELSFKKRY
modifications: codon-optimized; Mucor circinelloides
On to B2, for which the “northebaine production in Aspergillus nidulans vs vector control” value in [8] was “production of northebaine was achieved”. Besides, the “northebaine levels in N. benthamiana leaves vs negative P19 control” value in series [9] is “clear increase in northebaine”. For the same molecule, in series [10], the “northebaine amount compared to Lr_P450_co” value is reported as “yielded the highest northebaine amount”. Also, the “amount of nororipavine compared to Lr_P450_co” value in series [11] is listed as “resulted in the highest amount of nororipavine”.

The values above are taken from patent US11781164B2, “Demethylation of reticuline and derivatives thereof with fungal cytochrome P450” (priority 2017, dated 2023).
